Source: patent publication US6407222B1, “Cloning and expression of dog gonadotropin releasing hormone receptor” (Merck & Co., Inc., priority 1999, dated 2002)
Blank lines part the entries; values can stand above or below the compound they belong to.

What was measured:
[1] = target: dog gonadotropin-releasing hormone (GnRH) receptor (dog) (UniProt Q9MZI6); assay: cell-based or functional assay
[2] = target: dog gonadotropin-releasing hormone (GnRH) receptor (dog) (UniProt Q9MZI6); assay: whole cell radioligand binding assay on CHO-K1 clone 1B2-1F9
[3] = target: dog gonadotropin-releasing hormone (GnRH) receptor (dog) (UniProt Q9MZI6); assay: whole cell radioligand binding assay on transfected CHO-K1 clones (seven of 71 clones)
dog GnRH receptor = target: T1, dog GnRH receptor (Canis lupus familiaris, UniProt Q9MZI6); assay: Phosphoinositide (PI) turnover assay in 1B2-1F9 cells (CHO-K1 stably expressing the dog GnRH receptor); assay type: cell-based; conditions: 1B2-1F9 CHO-K1 clone expressing dog GnRH receptor; 37° C., 1 hour; FIG. 5; read-out: EC50 of GnRH-stimulated PI turnover
T1 construct: The full-length coding cDNA of the dog GnRH receptor was cloned from dog pituitary mRNA by RT-PCR; expressed in transfected cells
T1 sequence (Q9MZI6 1-327): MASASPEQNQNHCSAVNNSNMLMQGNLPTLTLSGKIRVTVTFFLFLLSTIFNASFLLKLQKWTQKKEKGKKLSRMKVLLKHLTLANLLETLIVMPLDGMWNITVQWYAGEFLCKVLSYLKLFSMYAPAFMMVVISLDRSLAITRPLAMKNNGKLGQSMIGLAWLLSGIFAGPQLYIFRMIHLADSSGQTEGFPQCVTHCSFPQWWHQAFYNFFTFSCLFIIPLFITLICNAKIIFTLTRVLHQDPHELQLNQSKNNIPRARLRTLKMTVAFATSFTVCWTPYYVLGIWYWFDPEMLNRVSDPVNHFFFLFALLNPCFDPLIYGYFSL
Protocol: The coding cDNA of the dog GnRH receptor was subcloned into a polycistronic expression vector pIRES1.neo (Clontech Laboratories, Palo Alto, Calif.) to generate cells stably expressing the receptor. The plasmid DNA of pIRES1.neo-dog-GnRHR was transfected into CHO-K1 cells by lipofectin (GIBCO-BRL, Grand Island, N.Y.) following the manufacturer's instruction. Transfection was carried out overnight and the cells were split 48 hours later. G418 at 1 mg/ml was added 24 hours after splitting, and its concentration was increased to 2 mg/ml in 2-3 days. After 10 days selection by G418, colonies were picked and transferred to 24-well plates. The clones that expressed the dog GnRH receptor were screened by a whole cell binding assay using a radiolabeled peptide agonist of GnRH, 5-(^125Iodo-Tyr)-Buserelin (Woods Assay, Portland, Oreg.). […] After single cell isolation, the membrane from this clone was prepared, and the membrane binding assay was performed using ^125I-buserelin. […] The GnRH-stimulated PI turnover was also performed.
1B2-1F9 cells are functionally coupled to phospholipase C. […] The eluate was then counted in a scintillation counter.

EC50 of GnRH-stimulated PI turnover [1]: 0.3 to 0.4 nM
Compound: Gonadotropin-releasing hormone (GnRH) (from UniProt P01148 24-92) (ligand)

specific binding activity, fold above the background [2]: > 10 fold
specific binding activity, fold above the non-specific binding [3]: 5 fold
Compound: 5-(125Iodo-Tyr)-Buserelin (peptide)

Compound: CC(C)C[C@H](NC(=O)CNC(=O)[C@H](Cc1ccc(O)cc1)NC(=O)[C@H](CO)NC(=O)[C@H](Cc1c[nH]c2ccccc12)NC(=O)[C@H](Cc1cnc[nH]1)NC(=O)[C@@H]1CCC(=O)N1)C(=O)N[C@@H](CCCNC(=N)N)C(=O)N1CCC[C@H]1C(=O)NCC(N)=O [GnRH, Gonadotropin-releasing hormone]
EC50 (dog GnRH receptor): 0.3 to 0.4 nM
